According to the supplement of paper PMC10724198:
± gives the standard deviation of the averaged measurements.

Key:
Saccharomyces cerevisiae [1] = assay: protein stability index of tFT-peptide fusion (C-terminal peptide) (PSI (0-1 scale)); higher = more stable (slower turnover)
Procedure: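 MPS profiling in S. cerevisiae of the tFT-X12 degron library: putative degron peptides plus stable controls, 12 aa, fused to the C-terminus of a sfGFP-mCherry timer. Cells are FACS-sorted into 8 mCherry/sfGFP bins and deep-sequenced. PSI runs from 0 (unstable) to 1 (stable). Backgrounds are wild type, das1Δ and doa10Δ at 30 °C, and wild type, das1Δ, cdc34-1 and cdc53-1 at 37 °C; 2-3 technical replicates each.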

Saccharomyces cerevisiae [2] = assay: as above; settings: genetic background: wild type; temperature: 30 C
[3] = genetic background: cdc34-1, temperature: 37 C
[4] = genetic background: cdc53-1, temperature: 37 C
[5] = genetic background: das1 deletion, temperature: 30 C
[6] = genetic background: das1 deletion, temperature: 37 C
[7] = genetic background: doa10 deletion, temperature: 30 C
[8] = genetic background: wild type, temperature: 30 C
[9] = genetic background: wild type, temperature: 37 C
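Note: PSI is a weighted mean of sequencing reads over stability bins, variants kept only with over 10 reads, mCherry proximal and sfGFP distal, peptide attached via GGGS linker.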

Sequence	protein stability index (Saccharomyces cerevisiae [1]; [3])	protein stability index (Saccharomyces cerevisiae [1]; [4])	protein stability index (Saccharomyces cerevisiae [1]; [5])	protein stability index (Saccharomyces cerevisiae [1]; [6])	protein stability index (Saccharomyces cerevisiae [1]; [7])	protein stability index (Saccharomyces cerevisiae [1]; [8])	protein stability index (Saccharomyces cerevisiae [1]; [9])	protein stability index (Saccharomyces cerevisiae [2])
ALLLLLRRFFLV	0.432 ± 0.034	0.659 ± 0.029	0.643 ± 0.014	0.739 ± 0.013	0.0867 ± 0.003	0.101 ± 0.044	0.0903 ± 0.02	0.154 ± 0.029
VSFEFSVLWTVF	0.548 ± 0.073	0.592 ± 0.028	0.515 ± 0.022	0.574 ± 0.029	0.384 ± 0.016	0.383 ± 0.017	0.469 ± 0.005	0.46 ± 0.018
LFFFVCYLATVK	0.198 ± 0.0088	0.347 ± 0.11	0.23 ± 0.032	0.416 ± 0.017	0.166 ± 0.011	0.191 ± 0.02	0.326 ± 0.0072	0.276 ± 0.053
GCDVWCLVLRMG	0.651 ± 0.016	0.68429 ± 0.00024	0.517 ± 0.0083	0.676 ± 0.031	0.418 ± 0.013	0.435 ± 0.019	0.63 ± 0.025	0.47 ± 0.018
VFFLFLVFLTVV	0.198 ± 0.059	0.164 ± 0.017	0.23 ± 0.01	0.324 ± 0.018	0.222 ± 0.011	0.195 ± 0.029	0.263 ± 0.0089	0.259 ± 0.01
RPCRPLIAAFVF	0.531 ± 0.0097	0.537 ± 0.022	0.415 ± 0.045	0.5628 ± 0.0049	0.374 ± 0.012	0.421 ± 0.031	0.529 ± 0.0077	0.502 ± 0.011
LFTVCMIIQMVH	0.0516 ± 0.003	0.185 ± 0.0029	0.145 ± 0.036	0.273 ± 0.02	0.0793 ± 0.0011	0.1 ± 0.055	0.173 ± 0.016	0.177 ± 0.017
VWSWFVIYFFFC	0.358 ± 0.025	0.388 ± 0.0079	0.335 ± 0.029	0.497 ± 0.013	0.366 ± 0.02	0.324 ± 0.014	0.444 ± 0.02	0.368 ± 0.0054
LGPLGWLVLLLV	0.415 ± 0.012	0.425 ± 0.014	0.353 ± 0.022	0.483 ± 0.0058	0.23 ± 0.015	0.22 ± 0.021	0.354 ± 0.0068	0.292 ± 0.035
VLVVVAFVALPR	0.264 ± 0.0083	0.41 ± 0.053	0.285 ± 0.015	0.485 ± 0.035	0.275 ± 0.01	0.282 ± 0.032	0.461 ± 0.031	0.372 ± 0.016
VGCHISAFSDLI	0.699 ± 0.022	0.744 ± 0.043	0.66 ± 0.023	0.752 ± 0.011	0.66 ± 0.037	0.665 ± 0.032	0.7489 ± 0.0017	0.762 ± 0.017
LWRFFFVAFVGI	0.446 ± 0.0079	0.509 ± 0.024	0.377 ± 0.034	0.55 ± 0.0084	0.359 ± 0.0076	0.357 ± 0.021	0.515 ± 0.018	0.421 ± 0.025
LSLFPFLPSPCP	0.736 ± 0.03	0.777 ± 0.0099	0.671 ± 0.009	0.752 ± 0.035	0.674 ± 0.036	0.669 ± 0.021	0.744 ± 0.018	0.748 ± 0.07
RCRLYLNVVVLC	0.269 ± 0.027	0.31 ± 0.0054	0.287 ± 0.047	0.413 ± 0.02	0.129 ± 0.01	0.122 ± 0.025	0.17 ± 0.0064	0.246 ± 0.07
CVPAPCGRASCR	0.697 ± 0.013	0.7301 ± 0.0034	0.64 ± 0.041	0.743 ± 0.0076	0.63 ± 0.0079	0.658 ± 0.018	0.706 ± 0.022	0.698 ± 0.016
AAFLGVLCWCWG	0.436 ± 0.039	0.465 ± 0.0079	0.363 ± 0.033	0.486 ± 0.0051	0.323 ± 0.0063	0.351 ± 0.019	0.4703 ± 0.00083	0.433 ± 0.011
FLCLLFYLSFFS	0.55 ± 0.018	0.5422 ± 4.9e-05	0.404 ± 0.028	0.572 ± 0.0078	0.378 ± 0.021	0.391 ± 0.021	0.5482 ± 0.0007	0.415 ± 0.029
VVFWFPFVLRCC	0.0644 ± 0.019	0.0927 ± 0.0061	0.193 ± 0.03	0.2959 ± 0.0026	0.0639 ± 0.0037	0.0509 ± 0.0053	0.072 ± 0.034	0.065 ± 0.017
RHAHPLTAQLPL	0.683 ± 0.031	0.707 ± 0.024	0.657 ± 0.026	0.747 ± 0.0096	0.694 ± 0.021	0.671 ± 0.042	0.7168 ± 0.0032	0.7048 ± 0.0032
SRSFWHAIVFLA	0.373 ± 0.043	0.589 ± 0.015	0.542 ± 0.026	0.649 ± 0.0067	0.0822 ± 0.036	0.0959 ± 0.028	0.0963 ± 0.018	0.122 ± 0.085

Sequence	protein stability index (Saccharomyces cerevisiae [1]; [3])	protein stability index (Saccharomyces cerevisiae [1]; [4])	protein stability index (Saccharomyces cerevisiae [1]; [5])	protein stability index (Saccharomyces cerevisiae [1]; [6])	protein stability index (Saccharomyces cerevisiae [1]; [7])	protein stability index (Saccharomyces cerevisiae [1]; [8])	protein stability index (Saccharomyces cerevisiae [1]; [9])	protein stability index (Saccharomyces cerevisiae [2])
FILCGFSVVLIG	0.153 ± 0.033	0.245 ± 0.0032	0.191 ± 0.036	0.395 ± 0.016	0.162 ± 0.019	0.184 ± 0.048	0.372 ± 0.014	0.255 ± 0.12
AITHVILLVTPL	0.562 ± 0.02	0.5803 ± 0.0043	0.411 ± 0.025	0.61 ± 0.059	0.384 ± 0.0029	0.417 ± 0.022	0.552 ± 0.0087	0.507 ± 0.04
SGLVHVLILGAC	0.4899 ± 0.0043	0.5165 ± 0.0038	0.347 ± 0.038	0.5529 ± 0.0051	0.313 ± 0.0048	0.338 ± 0.033	0.506 ± 0.011	0.45 ± 0.0019
FPVSSRSFSFIP	0.66 ± 0.051	0.7594 ± 0.0028	0.666 ± 0.02	0.732 ± 0.019	0.627 ± 0.02	0.656 ± 0.028	0.717 ± 0.053	0.727 ± 0.046
FHICTQLIFITC	0.06103 ± 0.00047	0.0651 ± 0.015	0.146 ± 0.029	0.198 ± 0.0078	0.114 ± 0.0037	0.127 ± 0.0084	0.145 ± 0.0024	0.192 ± 0.025
VGIVWELGCWMG	0.365 ± 0.052	0.49 ± 0.03	0.325 ± 0.023	0.543 ± 0.023	0.2794 ± 0.00095	0.303 ± 0.021	0.508 ± 0.0067	0.425 ± 0.019
VMWFVLVGLCIL	0.4219 ± 0.0041	0.449 ± 0.035	0.382 ± 0.044	0.506 ± 0.021	0.366 ± 0.0077	0.378 ± 0.018	0.496 ± 0.006	0.473 ± 0.033
CMLPWPILLCPF	0.322 ± 0.0044	0.329 ± 0.023	0.391 ± 0.024	0.469 ± 0.023	0.517 ± 0.022	0.389 ± 0.0084	0.456 ± 0.03	0.46 ± 0.0055
VCVFNLTLVGTH	0.421 ± 0.05	0.462 ± 0.018	0.347 ± 0.027	0.449 ± 0.0089	0.358 ± 0.028	0.343 ± 0.018	0.4341 ± 0.0033	0.366 ± 0.023
LGWFVDFVFVVW	0.289 ± 0.0096	0.426 ± 0.037	0.27 ± 0.03	0.458 ± 0.012	0.244 ± 0.0045	0.274 ± 0.025	0.454 ± 0.0019	0.4693 ± 0.0045
WRCLHLVYLFFH	0.395 ± 0.016	0.438 ± 0.036	0.365 ± 0.048	0.531 ± 0.047	0.192 ± 0.0042	0.173 ± 0.017	0.303 ± 0.013	0.286 ± 0.0091
MLTYVVRSLVGY	0.484 ± 0.0066	0.4954 ± 0.0015	0.37 ± 0.045	0.527 ± 0.011	0.331 ± 0.017	0.375 ± 0.023	0.496 ± 0.018	0.422 ± 0.029
MLFALLTIVFLG	0.241 ± 0.031	0.3263 ± 0.0015	0.242 ± 0.024	0.388 ± 0.0085	0.166 ± 0.0093	0.182 ± 0.015	0.30056 ± 0.00017	0.295 ± 0.016
HVCKLAMFQWYF	0.6 ± 0.011	0.713 ± 0.031	0.609 ± 0.012	0.72211 ± 0.00042	0.2873 ± 0.0019	0.302 ± 0.02	0.533 ± 0.029	0.371 ± 0.018
RVRNSQVVAVVG	0.491 ± 0.014	0.576 ± 0.014	0.354 ± 0.038	0.586 ± 0.0092	0.3291 ± 0.0023	0.382 ± 0.018	0.548 ± 0.022	0.477 ± 0.011
LLFSVLLLGVGF	0.425 ± 0.033	0.4723 ± 0.001	0.334 ± 0.023	0.5038 ± 0.0037	0.329 ± 0.024	0.324 ± 0.036	0.475 ± 0.0074	0.407 ± 0.035
SGRGFSFVLCTV	0.539 ± 0.039	0.599 ± 0.013	0.339 ± 0.035	0.58 ± 0.017	0.307 ± 0.013	0.339 ± 0.025	0.58 ± 0.015	0.4119 ± 2.1e-05
CPALTFCLLLSS	0.539 ± 0.051	0.567 ± 0.0093	0.417 ± 0.029	0.5866 ± 0.0054	0.427 ± 0.015	0.383 ± 0.019	0.557 ± 0.01	0.457 ± 0.0097
WLCVFVFGIFFV	0.146 ± 0.016	0.162 ± 0.01	0.179 ± 0.026	0.2894 ± 0.0021	0.292 ± 0.0061	0.186 ± 0.016	0.266 ± 0.0091	0.204 ± 0.016
